{"source": "paper PMC4264766", "about": "“Purification, Cloning, Characterization, and N-Glycosylation Analysis of a Novel β-Fructosidase from Aspergillus oryzae FS4 Synthesizing Levan- and Neolevan-Type Fructooligosaccharides” (PLoS ONE, 2014)", "proteins": {"B1": {"name": "N.BfrA (native β-fructosidase BfrA) (Aspergillus oryzae) (protein)", "chain": "IDYNAAPPNLSTLANGSLYDTWRPRAHILPPNGRIGDPCGHYTDPDTGLFHVGFLYNGSGIAGATTDDMVRFRDLNPNGSQFIMPGGKNDPVAVFDGSVIPKGIDDKPTLLYTSVTSLPIHWSIPYNPGAETQSLAVTSNGGRNFTKLDRPPVIPLPPSDSDVTAFRDPYAFQSPELDAAADSAPGTWYTAISGGVHEDGPGQFLYRQDQKEMSLESWEYLGLWWQEKVNTTWGNGDWAGGWGFNFETGNVFGLNEEGYSVDGEMFMTLGTEGSGTPIVSQVSSIHDMLWAAGNVSNNGNVTFTPTMAGVFDWGASGYAAAGHILPATSQVSTKSGAPDRFISFVWLTGDLFEQAKGYPTSQQNWVGTLLLPRELHIKTISNVVDNELAREEGSSWRVERGQSGIELKTLGIDIARETREALMSGPKITEPERTSKEAGLVPFQVSPTTKFHVLTAQLSFPRSARNSDLQAGFQVLSSDLESTTIYYQFSNESIIVDRSNTSAAAKTTNGIVSTNESGRLRLFDLQGDAQEIETLDLTVVVDNSVLEIYANGRFALSTWARSWYKNSTDIKFYHNGAGEVTFSNVTVSEGLFEAWPERV", "notes": "native, purified from A. oryzae FS4 mycelia; N-glycosylated; 95 kDa by SDS-PAGE, monomer; CDS 1860 bp; mature 65298 Da calculated; 40 kDa contaminant band"}}, "substrate": "OC[C@H]1O[C@@](CO)(O[C@H]2O[C@H](CO)[C@@H](O)[C@H](O)[C@H]2O)[C@@H](O)[C@@H]1O", "assay": "initial rates, glucose release by glucose assay kit, confirmed by HPLC; Michaelis-Menten fit", "assay_type": "biochemical, Aspergillus oryzae", "details": "total activity (glucose release), 55°C, potassium phosphate buffer, 0.005–0.5 M sucrose"}
{"protein": "B1", "values": [{"measurement": "Km", "value": "37.19 ± 5.28", "unit": "mM"}, {"measurement": "Vmax", "value": "1.28e+08", "unit": "µM/min/mg"}, {"measurement": "kcat", "value": "10000 ± 390", "unit": "s⁻¹"}, {"measurement": "kcat/Km", "value": "269000 ± 39700", "unit": "M⁻¹ s⁻¹"}]}
